# Reference: patent US20260015434A1, “ANTIBODY MATERIALS AND METHODS TARGETING MICROBIAL POLYSACCHARIDES” (priority 2022, published 2026)
# Test system: PNAG conjugates on the array (dPNAG, PNAG and intermediate levels of deacetylation)
# Experiment: Neoglycoprotein (glycan) microarray binding, 816-component array
# Conditions: ability to bind both dPNAG and PNAG and intermediate levels of deacetylation
row,Molecule,PNAG Binding on Array
1,"ADI-45379: Original clone from screen; HC SEQ ID NO: 1, LC SEQ ID NO: 2 (antibody, listed as Homo sapiens, V domains shown) VH: EVQLLESGGGLVQPGGSLRLSCAVSGFPFSSYWMSWVRQAPGKGLEWVANIKEDGSEKYYVDSVKGRFTISRDNAKNSLYLQMNSLRAEDTAVYYCATDPDVGLSDSWGQGTLVTVSS VL: ETTLTQSPATLSLSPGDRATHSCRASQSVSRSYLAWYQQKPGQTPRLFIYGASNRATGIPDRFSGSGSGTYFTLTISRLEPEDFAVYYCQQYDSAPDTFGQGTRLEIK",Yes
2,"TG10 LC Y55A: TG10 HC (SEQ ID NO: 3) with TG10 LC Y55A (SEQ ID NO: 40) (antibody, V domains shown, TG10 Heavy Chain Variable Region; Site directed mutation of TG10 LC Variable Region) VH: EVQLVESGGGLVQPGGSLRLSCAVSGFPFSSYWMSWVRQAPGKGLEWVANIKEDGSEKYYVDSVKGRFTISRDNAKNSLYLQMNSLRAEDTAVYYCATDPDVGLSDSWGQGTLVTVSS VL: EIVLTQSPGTLSLSPGDRATHSCRASQSVSRSYLAWYQQKPGQTPRLFIAGASNRATGIPDRFSGSGSGTYFTLTISRLEPEDFAVYYCQQYDSAPDTFGQGTRLEIK",Yes
3,"120 × TG: 1467120 HC (SEQ ID NO: 45) with TG10 LC (SEQ ID NO: 12) (antibody, V domains shown, Based on an antibody sequence.; TG10 Light Chain Variable Region) VH: QVQLVESGGGLVQPGGSLRLSCAASGFTFSSYWMSWVRQAPGKGLEWVANIKQDGSEKYYVDSVKGRFTISRDNAKNSLYLQMNSLRAEDTAVYYCARDPEGGLPDYWGQGTLVTVSS VL: EIVLTQSPGTLSLSPGDRATHSCRASQSVSRSYLAWYQQKPGQTPRLFIYGASNRATGIPDRFSGSGSGTYFTLTISRLEPEDFAVYYCQQYDSAPDTFGQGTRLEIK",No
4,"TG10 Y37A: TG10 HC Y37A (SEQ ID NO: 31) with TG10 LC (SEQ ID NO: 12) (antibody, V domains shown, Site directed mutation of TG10 HC Variable Region; TG10 Light Chain Variable Region) VH: EVQLVESGGGLVQPGGSLRLSCAVSGFPFSSAWMSWVRQAPGKGLEWVANIKEDGSEKYYVDSVKGRFTISRDNAKNSLYLQMNSLRAEDTAVYYCATDPDVGLSDSWGQGTLVTVSS VL: EIVLTQSPGTLSLSPGDRATHSCRASQSVSRSYLAWYQQKPGQTPRLFIYGASNRATGIPDRFSGSGSGTYFTLTISRLEPEDFAVYYCQQYDSAPDTFGQGTRLEIK",Yes
5,"285 × TG: 4488285 HC (SEQ ID NO: 46) with TG10 LC (SEQ ID NO: 12) (antibody, V domains shown, Based on an antibody sequence.; TG10 Light Chain Variable Region) VH: EVQLVESGGGLVQPGGSLRLSCAASGFTFSSYWMSWVRQAPGKGLEWVANIKQDGSEKYYVDSVKGRFTISRDNAKNSLYLQMNSLRAEDTAVYYCARDPYMGLIDYWGQGTLVTVSS VL: EIVLTQSPGTLSLSPGDRATHSCRASQSVSRSYLAWYQQKPGQTPRLFIYGASNRATGIPDRFSGSGSGTYFTLTISRLEPEDFAVYYCQQYDSAPDTFGQGTRLEIK",No
6,"TG10 Y66A: TG10 HC Y66A (SEQ ID NO: 38) with TG10 LC (SEQ ID NO: 12) (antibody, V domains shown, Site directed mutation of TG10 HC Variable Region; TG10 Light Chain Variable Region) VH: EVQLVESGGGLVQPGGSLRLSCAVSGFPFSSYWMSWVRQAPGKGLEWVANIKEDGSEKAYVDSVKGRFTISRDNAKNSLYLQMNSLRAEDTAVYYCATDPDVGLSDSWGQGTLVTVSS VL: EIVLTQSPGTLSLSPGDRATHSCRASQSVSRSYLAWYQQKPGQTPRLFIYGASNRATGIPDRFSGSGSGTYFTLTISRLEPEDFAVYYCQQYDSAPDTFGQGTRLEIK",Yes
7,"TG10 V110R: TG10 HC V110R (SEQ ID NO: 39) with TG10 LC (SEQ ID NO: 12) (antibody, V domains shown, Site directed mutation of TG10 HC Variable Region; TG10 Light Chain Variable Region) VH: EVQLVESGGGLVQPGGSLRLSCAVSGFPFSSYWMSWVRQAPGKGLEWVANIKEDGSEKYYVDSVKGRFTISRDNAKNSLYLQMNSLRAEDTAVYYCATDPDRGLSDSWGQGTLVTVSS VL: EIVLTQSPGTLSLSPGDRATHSCRASQSVSRSYLAWYQQKPGQTPRLFIYGASNRATGIPDRFSGSGSGTYFTLTISRLEPEDFAVYYCQQYDSAPDTFGQGTRLEIK",Yes
8,"729 × TG: 15729 HC (SEQ ID NO: 44) with TG10 LC (SEQ ID NO: 12) (antibody, V domains shown, Based on an antibody sequence.; TG10 Light Chain Variable Region) VH: EVQLVESGGGLVQPGGSLRLSCAASGFTFSSYWMSWVRQAPGKGLEWVANIKQDGSEKYYVDSVKGRFTISRDNAKNSLYLQMNSLRAEDTAVYYCARDPDGRIFDYWGQGTLVTVSS VL: EIVLTQSPGTLSLSPGDRATHSCRASQSVSRSYLAWYQQKPGQTPRLFIYGASNRATGIPDRFSGSGSGTYFTLTISRLEPEDFAVYYCQQYDSAPDTFGQGTRLEIK",No
9,"TG10 D116A: TG10 HC D116A (SEQ ID NO: 34) with TG10 LC (SEQ ID NO: 12) (antibody, V domains shown, Site directed mutation of TG10 HC Variable Region; TG10 Light Chain Variable Region) VH: EVQLVESGGGLVQPGGSLRLSCAVSGFPFSSYWMSWVRQAPGKGLEWVANIKEDGSEKYYVDSVKGRFTISRDNAKNSLYLQMNSLRAEDTAVYYCATDPDVGLSASWGQGTLVTVSS VL: EIVLTQSPGTLSLSPGDRATHSCRASQSVSRSYLAWYQQKPGQTPRLFIYGASNRATGIPDRFSGSGSGTYFTLTISRLEPEDFAVYYCQQYDSAPDTFGQGTRLEIK",Yes
10,"TG10 P108A: TG10 HC P108A (SEQ ID NO: 36) with TG10 LC (SEQ ID NO: 12) (antibody, V domains shown, Site directed mutation of TG10 HC Variable Region; TG10 Light Chain Variable Region) VH: EVQLVESGGGLVQPGGSLRLSCAVSGFPFSSYWMSWVRQAPGKGLEWVANIKEDGSEKYYVDSVKGRFTISRDNAKNSLYLQMNSLRAEDTAVYYCATDADVGLSDSWGQGTLVTVSS VL: EIVLTQSPGTLSLSPGDRATHSCRASQSVSRSYLAWYQQKPGQTPRLFIYGASNRATGIPDRFSGSGSGTYFTLTISRLEPEDFAVYYCQQYDSAPDTFGQGTRLEIK",Yes
